Reference: US20210155689A1 (SHANGHAI PHARMAEXPLORER, published 2021)
Changes are numbered by the printed parent chain.

Key:
[1] = target: T1, monkey LAG-3 (full length, on the cell surface) (monkey, UniProt P18627 24-525 (human entry)); experiment: FACS, HEK293-cLAG-3; 8.000 nM
T1 construct: also called HEK293-cLAG-3; monkey LAG-3 protein on the cell surface
T1 chain: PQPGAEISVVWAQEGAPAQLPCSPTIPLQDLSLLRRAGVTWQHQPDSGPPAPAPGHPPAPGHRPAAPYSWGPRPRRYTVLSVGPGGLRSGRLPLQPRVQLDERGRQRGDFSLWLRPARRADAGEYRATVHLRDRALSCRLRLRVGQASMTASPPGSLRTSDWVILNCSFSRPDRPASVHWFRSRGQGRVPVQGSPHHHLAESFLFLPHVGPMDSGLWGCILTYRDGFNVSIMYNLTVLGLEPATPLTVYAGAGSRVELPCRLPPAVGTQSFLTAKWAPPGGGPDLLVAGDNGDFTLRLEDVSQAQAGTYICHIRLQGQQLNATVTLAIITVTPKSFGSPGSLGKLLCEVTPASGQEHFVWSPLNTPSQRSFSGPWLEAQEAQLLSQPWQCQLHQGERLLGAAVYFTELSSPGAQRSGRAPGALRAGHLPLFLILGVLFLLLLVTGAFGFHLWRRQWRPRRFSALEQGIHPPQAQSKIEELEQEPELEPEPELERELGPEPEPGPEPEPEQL
From the text: The pIRES plasmid with the monkey-derived full-length gene was transfected into the HEK293 cell line to construct a HEK293 stable cell line containing monkey LAG-3 (herein referred to as HEK293-cLAG-3 stable cell line). The HEK293-hLAG-3 stable cell line and HEK293-cLAG-3 stable cell line were expanded in a T-75 cell culture flask to a 90% confluence. The medium was aspirated, and the cells were washed with HBSS (Hanks' Balanced Salt Solution) 1-2 times, then treated with a enzyme-free cell dissociation fluid (Versene solution: Life technology) and the cells were collected. The cells were washed with HBSS buffer for 1-2 times. After counted, the cells were diluted with HBSS to 1-2×10⁶ cells per ml, added with 1% goat serum blocking solution, incubated on ice for 20-30 minutes, and then washed with HBSS for 2 times by centrifugation. The collected cells were suspended in the FACS buffer (HBSS+1% BSA) to 2×10⁶ cells/ml, added as 100 microliters per well to a 96-well FACS reaction plate, added with 100 microliters per well of the antibody sample to be tested, incubated on ice for 1-2 hours. The plate was washed twice with the FACS buffer by centrifugation, added with 100 microliters of fluorescent (Alexa 488)-labeled secondary antibodies per well, and incubated on ice for 0.5-1.0 hours. The plate was washed 2-3 times with FACS buffer by centrifugation, added with 100 μl fixative solution (4% Paraformaldehyde) per well to suspend the cells. 5-10 minutes later, it was washed 1-2 times with FACS buffer by centrifugation. The cells were suspended with 100 microliters of FACS buffer, FACS (FACSCalibur, BD) was used for detection and the results were analyzed.

[2] = target: T2, human LAG-3 protein with hFc tag (hLAG-3-hFc protein) (human, UniProt P18627 23-450); experiment: FACS, blocks LAG-3-hFc binding to MHC II on Raji; 66.667 nM
T2 construct: also called immunogen 1; LAG-3 extracellular domain protein; not shown: human IgG Fc fragment (hFc) of the pCpC vector
T2 sequence: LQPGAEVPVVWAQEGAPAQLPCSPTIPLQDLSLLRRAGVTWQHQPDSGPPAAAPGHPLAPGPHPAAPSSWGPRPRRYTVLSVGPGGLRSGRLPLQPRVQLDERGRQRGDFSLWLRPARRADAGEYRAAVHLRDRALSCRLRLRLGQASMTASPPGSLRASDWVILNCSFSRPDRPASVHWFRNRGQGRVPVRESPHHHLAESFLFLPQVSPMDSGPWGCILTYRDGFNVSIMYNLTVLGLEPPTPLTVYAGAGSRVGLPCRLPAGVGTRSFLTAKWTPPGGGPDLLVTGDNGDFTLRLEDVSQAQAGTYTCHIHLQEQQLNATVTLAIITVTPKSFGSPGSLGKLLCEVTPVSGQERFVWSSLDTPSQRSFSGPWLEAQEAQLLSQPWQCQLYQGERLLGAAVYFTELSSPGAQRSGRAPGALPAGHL
Description: The FACS reaction plate incubating the Raji cells was centrifuged to discard the supernatant. The above mixture was added as 100 μl per well to Raji cells and incubated on ice for 1-2 hours. The plate was washed twice with blocking solution (PBS, 2% fetal bovine serum) by centrifugation, added with 100 microliters of fluorescent (Alexa 488)-labeled secondary antibodies per well, and incubated on ice for 1.0 hours. The plate was washed 2-3 times by centrifugation with blocking solution (PBS, 2% fetal bovine serum), added with 100 microliters of PBS per well to suspend cells, and detected using FACS (FACS Calibur, BD) and the results were analyzed. Wherein, the IgG control was murine IgG, and the data in the table is the inhibition rate (%).

[3] = target: T3, mouse LAG-3 protein with hFc tag (mLAG-3-hFc protein) (mouse; human, UniProt Q61790 24-442); experiment: ELISA, mLAG-3-hFc coated; 0.0001 nM
T3 construct: Made in HEK293 cells; also called mouse LAG-3 extracellular domain protein; not shown: human IgG Fc fragment (hFc) of the pCpC vector
T3 sequence: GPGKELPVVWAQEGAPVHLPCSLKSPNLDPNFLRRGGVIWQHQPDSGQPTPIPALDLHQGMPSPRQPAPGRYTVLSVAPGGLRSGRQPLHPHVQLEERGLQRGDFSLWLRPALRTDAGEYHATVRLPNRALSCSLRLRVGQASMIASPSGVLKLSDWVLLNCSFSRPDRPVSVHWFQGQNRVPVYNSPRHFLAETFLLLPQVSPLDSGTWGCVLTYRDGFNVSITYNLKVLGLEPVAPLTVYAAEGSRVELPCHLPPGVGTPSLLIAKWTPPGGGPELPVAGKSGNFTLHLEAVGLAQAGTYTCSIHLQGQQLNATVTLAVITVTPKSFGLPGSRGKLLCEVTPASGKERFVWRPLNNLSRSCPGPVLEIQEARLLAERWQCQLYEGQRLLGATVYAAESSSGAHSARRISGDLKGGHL
Description: The plate was sealed with plastic film and incubated overnight at 4° C. The plate was washed 2 times with the plate washing solution (PBS+0.01% Tween20) on the next day, and added with the blocking solution (PBS+0.01% Tween20+1% BSA) and blocked at room temperature for 1-2 hours. The blocking solution was poured out, and the plate was added with 50-100 μl of the antibody sample to be tested to each well, incubated at 37° C. for 1-2 hours, and washed 2-3 times with a plate washing solution (PBS+0.01% Tween20). HRP (horseradish peroxidase) labeled secondary antibody was added, and the plate was incubated at 37° C. for 1-2 hours, and washed 2-3 times with a plate washing solution (PBS+0.01% Tween20). 100 μl of TMB substrate was added to each well. After incubated at room temperature for 15-30 minutes, the plate was added with 100 μl of stop solution (1.0N HCl) to each well.

B1: 405B8H3 (mouse antibody purified from hybridoma) (antibody, V domains shown)
VH: QVQLQQSGAELVRPGASVTLSCKASGYTFTDYEMHWVKQTPVHGLEWIGATDPETGNSAYNQKFKGKAIMTADKSSSTAYMELRSLTSEDSAVYYCISTGWNDWGQGTSLTVSS
VL: DIKMTQSPSSMYASLGERVTITCKASQDINSYLSWFQQKPGKSPKTLIYRADRLLDGVPSRFSGSGSGQDYSLTISSLEYGDMGIYYCLQYDEFPYTFGGGTKLEIK
notes: also called mAb103-405B8H3; 405B81-13
- Mean fluorescence intensity [1]: 61.4 MFI
- Inhibition rate (%) [2]: 94%

B2: 105F1E10 (LAG-3 mouse-human chimeric antibody) (antibody, V domains shown)
VH: EVQLQQSGPELVKPGASVKMSCRASGYTFTDFKMHWMKQSHGKSLEWIGYIAPNNGGTAYNQKFRGKATLTVNESSNTAYMELRSLTSEDSAVYYCVDWDDVDYWGQGTTLTVSS
VL: B1 VL with P40S, D52N, L55V, G81E, D92V, Y96L, G100A, I106L
- OD450 [3]: 0.09 OD450

B3: 405B8H3 (LAG-3 mouse-human chimeric antibody) (antibody, V domains shown)
VH: B1 VH
VL: B1 VL
notes: also called mouse-human chimeric antibody 405B8H3
- OD450 [3]: 0.08 OD450

B4: 105F1E10 (mouse antibody purified from hybridoma) (antibody, V domains shown)
VH: B2 VH
VL: B1 VL with P40S, D52N, L55V, G81E, D92V, Y96L, G100A, I106L
notes: also called mAb009-105F1E10
- Mean fluorescence intensity [1]: 44.6 MFI
- Inhibition rate (%) [2]: 93.6%

B5: 409B11E12 (mouse antibody purified from hybridoma) (antibody, V domains shown)
VH: B1 VH with P41T, G56S, N57Y, M70L, S98A
VL: B1 VL with I2L, D52N, G81E
notes: also called mAb104-409B11E12
- Mean fluorescence intensity [1]: 69.9 MFI
- Inhibition rate (%) [2]: 95.5%

B6: 409D4E10 (LAG-3 mouse-human chimeric antibody) (antibody, V domains shown)
VH: B1 VH with Y27N, G56D, S58T, M70L, A72T, S98T, T99S
VL: B1 VL with D52N, G81E, D92N
- OD450 [3]: 0.1 OD450

B7: 409B11E12 (LAG-3 mouse-human chimeric antibody) (antibody, V domains shown)
VH: B1 VH with P41T, G56S, N57Y, M70L, S98A
VL: B1 VL with I2L, D52N, G81E
- OD450 [3]: 0.09 OD450

B8: 409D4E10 (mouse antibody purified from hybridoma) (antibody, V domains shown)
VH: B1 VH with Y27N, G56D, S58T, M70L, A72T, S98T, T99S
VL: B1 VL with D52N, G81E, D92N
notes: also called mAb112-409D4E10
- Mean fluorescence intensity [1]: 93.8 MFI
- Inhibition rate (%) [2]: 96%

B9: 556F6B8 (mouse antibody purified from hybridoma) (antibody, V domains shown)
VH: RVQLKQSGPGLVQPSQSLSITCTVSGFSLIKYGVHWVRQSPGEGLEWLGVIWRGGITDYNAAFMSRLSITKDNSKSQVFFKMNSLQADDTAIYYCAKWDGPLAMDYWGQGTSVTVSS
VL: DIVMTQSHKFLSTSVGDRVSITCKASQDVGTTVAWYQQKPGQSPKLLIYWASTRHTGVPDRFTGSGSGTDFTLTISNVQSEDLADYFCQQYSSYPYTFGGGTKLEIK
notes: also called mAb123-556F6B8
- Mean fluorescence intensity [1]: 46.7 MFI
- Inhibition rate (%) [2]: 95.9%

B10: 556F6B8 (LAG-3 mouse-human chimeric antibody) (antibody, V domains shown)
VH: B9 VH
VL: B9 VL
notes: also called 556F8B8
- OD450 [3]: 0.14 OD450
